How the values were obtained:
[1] = biological target: T1, rGyr_hel (reverse gyrase helicase-like domain) (Thermotoga maritima, UniProt O51934 59-541); assay: fluorescence anisotropy
T1 sequence: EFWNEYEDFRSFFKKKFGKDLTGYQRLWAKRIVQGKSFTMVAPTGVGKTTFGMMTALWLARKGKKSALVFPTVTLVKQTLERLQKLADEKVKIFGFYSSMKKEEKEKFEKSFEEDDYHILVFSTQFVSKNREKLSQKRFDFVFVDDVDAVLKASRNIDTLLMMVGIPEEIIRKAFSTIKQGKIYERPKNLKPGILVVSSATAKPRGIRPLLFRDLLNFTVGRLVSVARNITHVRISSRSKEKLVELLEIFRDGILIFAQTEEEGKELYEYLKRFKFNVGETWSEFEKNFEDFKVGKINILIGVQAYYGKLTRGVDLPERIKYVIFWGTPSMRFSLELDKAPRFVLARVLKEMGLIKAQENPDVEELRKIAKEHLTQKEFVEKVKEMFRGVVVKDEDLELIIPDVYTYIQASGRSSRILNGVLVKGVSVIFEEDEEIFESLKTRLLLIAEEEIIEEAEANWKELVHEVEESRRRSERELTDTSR

[2] = biological target: T2, rGyr_fl Y851F (full-length reverse gyrase) (Thermotoga maritima, UniProt O51934 1-1104, Y851F); assay: fluorescence anisotropy
T2 sequence: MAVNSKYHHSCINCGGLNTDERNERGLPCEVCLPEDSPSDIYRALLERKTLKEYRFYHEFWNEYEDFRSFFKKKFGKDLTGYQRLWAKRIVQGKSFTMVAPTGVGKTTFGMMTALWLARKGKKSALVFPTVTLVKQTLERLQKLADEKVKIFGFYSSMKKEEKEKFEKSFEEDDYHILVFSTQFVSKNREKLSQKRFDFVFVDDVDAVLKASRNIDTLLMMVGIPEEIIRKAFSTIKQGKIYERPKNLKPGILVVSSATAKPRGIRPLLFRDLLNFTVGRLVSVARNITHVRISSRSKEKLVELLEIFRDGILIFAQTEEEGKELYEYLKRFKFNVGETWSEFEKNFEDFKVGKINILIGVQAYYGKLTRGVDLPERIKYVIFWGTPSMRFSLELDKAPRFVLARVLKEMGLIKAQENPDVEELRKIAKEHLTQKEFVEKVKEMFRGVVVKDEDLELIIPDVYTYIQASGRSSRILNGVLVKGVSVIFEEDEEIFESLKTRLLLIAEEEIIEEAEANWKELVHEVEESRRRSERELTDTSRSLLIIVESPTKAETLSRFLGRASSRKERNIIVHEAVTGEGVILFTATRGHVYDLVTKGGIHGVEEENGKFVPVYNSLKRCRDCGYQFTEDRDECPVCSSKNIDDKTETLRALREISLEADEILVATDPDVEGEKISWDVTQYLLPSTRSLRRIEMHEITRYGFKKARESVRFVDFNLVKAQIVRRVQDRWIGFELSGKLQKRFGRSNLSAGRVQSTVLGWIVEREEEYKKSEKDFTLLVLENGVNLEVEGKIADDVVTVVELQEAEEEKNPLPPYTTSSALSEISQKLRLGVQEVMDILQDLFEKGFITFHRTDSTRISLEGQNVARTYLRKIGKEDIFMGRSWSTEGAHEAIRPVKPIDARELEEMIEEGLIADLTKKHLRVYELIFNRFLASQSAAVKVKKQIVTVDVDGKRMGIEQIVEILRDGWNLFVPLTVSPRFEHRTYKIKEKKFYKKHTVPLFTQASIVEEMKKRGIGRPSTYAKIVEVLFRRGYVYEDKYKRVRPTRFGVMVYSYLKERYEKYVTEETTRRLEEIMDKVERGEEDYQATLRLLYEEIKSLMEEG

B1: 60-base ssDNA (ssDNA)
DNA: AAGCCAAGCTTCTAGAGTCAGCCCGTGATATTCATTACTTCTTATCCTAGGATCCCCGTT
[1]
  Kd: 330 ± 10 nM
[2]
  Kd: 41 ± 1 nM

Source: article PMC2566858 (Nucleic Acids Research, 2008)
